The results in this text go back to patent publication US20110243962A1 (GENEURO, published 2011).

In experiment [1] the target is T1, MSRV complete ENV protein (ENV-T), recombinant from E. coli (MSRV (Multiple Sclerosis associated …)).
T1 construct: also called ENV-T 7A; His-ENV-T
T1 chain: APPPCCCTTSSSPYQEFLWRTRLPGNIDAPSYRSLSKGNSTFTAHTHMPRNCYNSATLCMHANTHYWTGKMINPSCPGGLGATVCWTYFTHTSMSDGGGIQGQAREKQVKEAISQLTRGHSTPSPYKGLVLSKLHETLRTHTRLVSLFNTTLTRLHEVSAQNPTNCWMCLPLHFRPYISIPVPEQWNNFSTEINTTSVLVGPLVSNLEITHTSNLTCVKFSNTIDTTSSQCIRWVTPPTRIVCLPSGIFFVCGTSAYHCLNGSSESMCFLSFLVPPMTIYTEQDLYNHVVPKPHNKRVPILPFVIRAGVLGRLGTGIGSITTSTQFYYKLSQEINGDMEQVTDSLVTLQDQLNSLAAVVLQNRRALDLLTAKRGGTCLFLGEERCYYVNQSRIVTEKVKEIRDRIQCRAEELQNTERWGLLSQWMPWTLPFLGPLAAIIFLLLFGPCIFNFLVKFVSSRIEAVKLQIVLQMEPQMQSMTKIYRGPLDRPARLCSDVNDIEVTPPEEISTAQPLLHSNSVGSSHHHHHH
The experiment is described as follows: ELISA; ENV 1 ug/ml coated; mAb 1 ug/ml. How it is done:
(§1) Protocol: Incubation 2 h at 37° C. […] Revelation is made by adding OPD substrate and reading optic density with a spectrophotometer after 30 min (Washing steps with PBS are performed between every step).

Experiment [2] addresses T1, MSRV complete ENV protein (ENV-T), …. Description: ELISA; ENV 0.5 ug/ml coated; mAb 1 ug/ml. Here is the method:
as §1
Background: An ELISA detects its analyte on a solid surface through an enzyme-linked reagent.

Experiment [3] shares this target. The experiment is described as follows: ELISA; ENV 0.125 ug/ml coated; mAb 1 ug/ml. Here is the method: as §1
For experiment [4] the target is unchanged. The experiment is described as follows: ELISA; ENV 0.0078 ug/ml coated; mAb 1 ug/ml. Here is the method: as §1
For experiment [5] the target is unchanged. Description: ELISA; ENV 0.0156 ug/ml coated; mAb 1 ug/ml. How it is done:
as §1

The target is the same in experiment [6]. Description: ELISA; ENV-T 7A 1 ug/ml coated; mAb 0.0156 ug/ml. Here is the method: as §1
For experiment [7] the target is unchanged. Description: ELISA; ENV-T 7A 1 ug/ml coated; mAb 0.0625 ug/ml. How it is done: as §1
Experiment [8] shares this target. The experiment is described as follows: ELISA; coated ENV-T 7A 0.0156; ligand 1 microgram. How it is done:
(§2) II-1d Direct ELISA on Microplates Coated with ENV Antigen (ENV-T or ENV-SU as Described Above) [0159] Microwells were coated with 100 μl per well of ENV antigen diluted in 50 mM Sodium Bicarbonate, pH 9.6. Plate were sealed and incubated 2 hours at 37° C. under light agitation. [0160] Microwells were washed 4 times with 250 μl per well of PBS (Phosphate Buffer Saline). After the last, plates were inverted and blotted on absorbent paper to remove any residual buffer. [0161] 100 μl per well of detection antibody according to the present invention (GNbAC1 or its Fab fragment) diluted in PBS+BSA 1% (PBS with 1% of Bovine Serum Albumin) were added. Plate were sealed and incubated 1 hour at room temperature under light agitation. […] Microwells were washed 4 times with 250 μl per well of PBS. After the last, plates were inverted and blotted on absorbent paper to remove any residual buffer. [0163] […] Plate were sealed and incubated 1 hour at room temperature under light agitation. [0164] Microwells were washed 6 times with 250 μl per well of PBS. After the last, plates were inverted and blotted on absorbent paper to remove any residual buffer. [0165] 100 μl par well of Substrate Solution (1 tablet of o-Phenylenediamine (OPD) diluted in 10 ml of 0.05M Phosphate Citrate Buffer pH5+10 μl H2O2 30%, prepared at the last moment) were added. Plates were incubated 30 min at room temperature in the dark. […] 50 μl per well of Stop Solution 2N H2SO₄ were added. [0167] The absorbance was read at 490 nm within 30 minutes of stopping reaction.
(§3) Env-T antigen is coated onto microtiter ELISA plate wells with serial dilutions ranging from 1 μg/ml to about 0.01 μg/ml.

For experiment [9] the target is unchanged. Description: ELISA; coated ENV-T 7A 0.0625; ligand 1 microgram. How it is done: as §2, §3
The target is the same in experiment [10]. Description: ELISA; ENV-T 7A 1 ug/ml coated; mAb 0.03125 ug/ml. Here is the method: as §1
Experiment [11] has the same target. The experiment is described as follows: ELISA; coated ENV-T 7A 0.03125; ligand 1 microgram. How it is done: as §2, §3
Experiment [12] shares this target. The experiment is described as follows: ELISA; coated ENV-T 7A, concentration cell blank (top of series, 1 µg/ml per paragraph 198); ligand 1 microgram. How it is done:
as §2, §3

The target is the same in experiment [13]. Description: cell-based or functional assay.

Numbering of substitutions follows the chain as printed.

B1: GNbAC1 murine monoclonal antibody (IgG1/kappa) (antibody, V domains shown)
VH: QVQLQQSGAELVRPGAPVTLSCKASGYTFTDYEMHWVKQTPVHGLEWIGAVAPETGGTAYNQKFKGKATLTAAKSSSTAYMELRSLTSEDSAVYYCTSTVVPFAYWGQGTLVTVSA
VL: QIVLTQSPAIMSASPGEKVTISCSASSSVSYMYWYQQKPGSSPKAWIYRTSNLASGVPGRFSGSGSGTSYSLTISSMEAEDAATYYCQQYQSLPLTFGSGTKLEIK
notes: Murine IgG1/kappa from hybridoma; also called murine IgG1; muIgG
Take B1: the optic density in experiment [1] was found to be 2.22 OD; in experiment [2] it was 1.87 OD; in [3] it was 0.975 OD; in [4], 0.111 OD; in [5], 0.186 OD; in experiment [6], 0.166 OD. In addition, the values for the optic density in [7] and in [10] were 0.585 OD and 0.406 OD, respectively. Also, the optical density in experiment [8] was found to be 1.3 OD; in experiment [9], 1.56 OD; in experiment [11], 1.34 OD; in experiment [12], 3 OD.

B2: Chimeric GNb AC1 IgG1 (human IgG1 constant regions with murine VH and VL) (antibody, V domains shown)
VH: B1 VH
VL: B1 VL
notes: Human IgG1 heavy constant region and human kappa constant region, made in CHO cells; also called GNbAC1 chimeric IgG1; Ligand in human IgG1
On to B2, for which the optic density in [1] is 2.52 OD; in experiment [2], 2.53 OD; in experiment [3], 1.82 OD; in [4], 0.642 OD; in experiment [5], 0.888 OD; in experiment [6], 1.27 OD. The optic density is 2.51 OD in experiment [7] and 1.98 OD in experiment [10]. In addition, the optical density in experiment [8] turned out to be 1.26 OD; in experiment [9], 1.8 OD; in [11], 1.56 OD; in experiment [12], 3 OD.

B3: Chimeric GNb AC1 IgG4 (human IgG4 constant regions with murine VH and VL) (antibody, V domains shown)
VH: B1 VH with P17S
VL: QIVLTQSPAIMSASPGEKVTISCSASSSVSYMYWYQQKPGSSPKAWIYRTSNLASGVPGRFSGSGSGTSYSLTISSMEAEDAATYYCQQYQSLPLTFGSGTKLEIKR
notes: also called GNbAC1 chimeric IgG4; GNbAC1-IgC4
As for B3, in experiment [13], the “IL-6 at 24 h in PBMC culture with ENV-T 0.1 ug/ml, MAb ratio 10/1 (no antibody: 4363)” value amounted to 2270. The optic density in experiment [1] came to 2.67 OD; in experiment [2], 2.26 OD; in experiment [3] it was 1.56 OD; in experiment [4], 0.313 OD; in experiment [5], 0.71 OD; in experiment [6] it was 0.777 OD. The optic density in experiment [7] came out at 1.66 OD; in [10] it was 1.26 OD. Further, the optical density in experiment [8] is 1.02 OD; in experiment [9], 1.52 OD; in experiment [11] it was 1.37 OD; in experiment [12], 3 OD.
